Results reported in patent US20120164123.

Experiments:
[1] = system: human neutrophil peptide-1 (HNP-1)
[2] = system: mono-ADP-ribosylated HNP-1
Sequence of mono-ADP-ribosylated HNP-1 (chain, as listed by the source): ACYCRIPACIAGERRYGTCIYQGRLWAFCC

Sequence of human neutrophil peptide-1 (HNP-1) (chain, as listed by the source): as above

manganese-activated arginase was tested, and the “ornithine formation by arginase (amino acid analysis and MS)” value [1] was “Identification of the products by amino acid analysis and MS identified ornithine only in the reaction that contained free arginine” and the “ornithine formation by arginase (amino acid analysis and MS)” value [2] was “Identification of the products by amino acid analysis and MS identified ornithine only in the reaction that contained free arginine”.
